Target: rice XA21 receptor kinase (rice)
Experiment: cell-based or functional assay

Row | Substance | EC50 of total ROS production over 3 h in Ubi::XA21 rice leaves
1 | RaxX24-sY (peptide) | 30 nM
2 | RaxX21-sY (peptide) | 20 nM
3 | RaxX39-sY (peptide) | 70 nM
4 | RaxX60-sY (full-length sulfated recombinant RaxX-His from Xoo PXO99) (ligand) | 100 nM

From patent US20200048654A1
